In the supplement of paper PMC9170038:

Test system: MS2 coat protein
Assay: apparent KD of MS2 coat protein; designed switch direction (-1 OFF switch, 1 ON switch): -1; higher = weaker reporter binding
In short: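 RNA switches sharing common flanks were transcribed by stalled E. coli RNA polymerase on Illumina chips. A doubling series of SNAP-549-labelled MS2 coat protein, from 0.7 or 1.5 nM to 3 µM, was applied in Tris-HCl pH 7.5 buffer with KCl, MgCl2, BSA, DTT, tRNA and Tween-20. Each step lasted 0.8–1.5 h at the bottom of the series and 10–20 min at the top. Normalised cluster fluorescence was curve-fitted, giving apparent KD as the per-design median over clusters.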

[1] = Eterna round: R95, input ligand: microRNA oligo, concentration not stated
[2] = input ligand: microRNA oligo, concentration not stated
[3] = Eterna round: R95, input ligand: FMN 200 uM
[4] = Eterna round: R95, input ligand: none

| Sequence | apparent KD of MS2 coat protein [1] [nM] | apparent KD of MS2 coat protein (input ligand: FMN 200 uM) [nM] | apparent KD of MS2 coat protein [2] [nM] | apparent KD of MS2 coat protein (input ligand: none) [nM] | apparent KD of MS2 coat protein [3] [nM] | apparent KD of MS2 coat protein [4] [nM] |
| --- | --- | --- | --- | --- | --- | --- |
| AAAUGGGCGUAGGAUAUGAGAUGGUCUAGCAGCUCAGAAGGACGCACAUGAGGAUCACCCAUGUGAUCGGACUA [Celebidi] (puzzle: Exclusion 6) | 29.7 | – | – | – | – | – |
| GUGCAGGUAGGAUAUCCACCGGCAAACAUGAGGAUCACCCAUGUGACGCUCCCUUGUCUUGGAGAAGGGCCGGCAU [Xetemaaren] (puzzle: Exclusion 5) | 25.2 | – | – | – | – | – |
| GAUCCUUUUACGGACGUCUCGAAACAUGAGGAUCACCCAUGUGAGGAUAUCUCCGAGAGAUCGGCAGAGAAGGCACAAUAACAA [MOD Eternabot solution 19 score 84.66] (Eterna round: R96, puzzle: Exclusion NG 3) | – | 91.4 | 19.7 | 50.3 | – | – |
| CAGGUGUUAGGAUAUCGGAGAUCGAGGCCGACGGGAAAAGCCGAGAAGGAACAUGAGGAUCACCCAUGUAGGUG [JR_Exclu4_Sub035] (puzzle: Exclusion 4) | 235 | – | – | – | 347 | 223 |
| AUUUUGUGAGGAUAUCAGGUGUGCUAGCGUACUGGUACAUCUGAGAAGGCACAUGAGGAUCACCCAUGUUUAUU [Mat - Exclusion 4 - Mod of JL - D39] (puzzle: Exclusion 4) | 25.6 | – | – | – | – | – |
| CCAUUCAGAGGAUAUGCGAAUAAAUAAAACUUUUUUUUUUAACAUGAGGAUCACCCAUGUAGAAGGCUGUAACC [Ex2 #44] (Eterna round: R97, puzzle: Exclusion 2) | – | 31.4 | – | 27.6 | – | – |
| ACAAGCUUUUUGCUCGUCUACAUGAGGAUCACCCAUGUAGUGUGUUAGUGGUGAAGAUAGAUUGAGCGUAGUAGGUA [JR_SV3TOV1_Sub072] (puzzle: Sensor v3, turn-off variant 1) | 79.5 | – | – | – | 102 | 109 |
| UACCUGAGGCUUUGCUUUAGGUAUACAUGAGGAUCACCCAUGUAGGAUAUGGUAGGCUUUGCUUACCAGAAGGACAUGUUAAUU [JL ENG3 1.09] (Eterna round: R96, puzzle: Exclusion NG 3) | – | 141 | 30.9 | 29 | – | – |
| UCGUCGUCGUCAGGAUAUAGUCUUAUUGUUAUGCUUUUGUUCGUACAUGAGGAUCACCCAUGUGGCUAGAAGGGACUAAAGUUU [JR_ExcNG2_Sub017] (Eterna round: R96, puzzle: Exclusion NG 2) | – | 19.3 | 17.2 | 23 | – | – |
| GGUGAGCGAGGAUAUACAUGAGGAUCACCCAUGUGAGAGAAAUAAGUGAGGAAGAAAAGUAGAAGGCGCGAACG [Mat - Exclusion 3 - Mod of Salish D46] (puzzle: Exclusion 3) | 25.3 | – | – | – | 114 | 29.3 |
| AACCUACAUGAGGAUCACCCAUGUGAGGAUAUAUUGGUAUUGAUGUUAUUUUUUAGAGGUAGAAGGCGCGUGAU [JR_Exc1_Sub022] (Eterna round: R97, puzzle: Exclusion 1) | – | 15 | – | 14 | – | – |
| GUGUGCAGAGGAUAUACAUAGGAAAAUAAAAGAGAAGUGGGACAUGAGGAUCACCCAUGUAGAAGGCUGAGUGU [Excluse me!! 22 - Jieux - Exclusion 2] (puzzle: Exclusion 2) | 73.7 | – | – | – | 89.9 | 72.8 |
| CUAAUUCAAGGAUAUACAUGAGGAUCACCCAUGUGAGGGAGUGACAAGUUGUCGGGAUGUAGAAGGUGACCUAG [Eternabot (L2) Solution 36] (Eterna round: R97, puzzle: Exclusion 3) | – | 417 | – | 411 | – | – |
| UUGAAGUCGUCAGGAUAUAGUUUUAAUGUCAUGCGUAUGUUCUUACAUGAGGAUCACCCAUGUCGCUAGAAGGGACUAAAGAUU [JR_ExcNG2_Sub010] (Eterna round: R96, puzzle: Exclusion NG 2) | – | 43.9 | 33.4 | 44.4 | – | – |
| GAAAAUAGUGAGGAUAUAUCACGGAUACCCGAGAUAGAAGGCACUACAUGAGGAUCACCCAUGUUCGGGUGUCC [Areleon] (Eterna round: R97, puzzle: Exclusion 6) | – | 107 | – | 79.3 | – | – |
| AGUACUAACACGCCUGUGUUAGUACAAUAAGCUUGUGAAACAUGAGGAUCACCCAUGUCCUCAUAAGCUCGUCUUAU [salish99_TOv2_r3_077] (puzzle: Sensor v3, turn-off variant 2) | 671 | – | – | – | 16.3 | 15.4 |
| UACACUGCAUGAGGAUCAAACAUGAGGAUCACCCAUGUAUAGCAAGCUUUUUGCUCGUCUUAUAAUUAUGUAGUGUA [Electric Eye 12 - Jieux - Sensor, turn-off variant 1] (Eterna round: R97, puzzle: Sensor, turn-off variant 1) | – | 15 | – | 15.7 | – | – |
| UCCUCACAUGAGGAUCACCCAUGUUAGGAUAUCCACCGUUGAUGGUGCCGAAUCGGUAGGAGAAGGAACAUACA [EX1 B.18] (Eterna round: R97, puzzle: Exclusion 1) | – | 58.8 | – | 24.1 | – | – |
| CCGGUAGCAUAGGAUAUCGCCAACGUUGUAGUACGAGAAGGGUGCACAUGAGGAUCACCCAUGUUUCCUGGCCG [Eternabot (L2) Solution 63] (Eterna round: R97, puzzle: Exclusion 6) | – | 107 | – | 131 | – | – |
| GAUCAACAUGAGGAUCACCCAUGUUAGGAUAUGUCCACGUGGCAUAGGACCACGUGUGGCAGAAGGAGCGUUAA [Eternabot (L2) Solution 52] (Eterna round: R97, puzzle: Exclusion 1) | – | 37.9 | – | 37.4 | – | – |
| AGCGCCAUCGUGAGAUGGCGUAUUACAUGAGGAUCACCCAUGUAGGAUAUCGAUUGCUUUGCAGUCGAGAAGGACAUGUUCUUC [JL ENG3 3.80 Mod C] (Eterna round: R96, puzzle: Exclusion NG 3) | – | 66 | 16 | 23.2 | – | – |
| GAGAAGGUAGGAUAUACGAAGAAAAAGGGUAGAAGAAGAACACAUGAGGAUCACCCAUGUAGAAGGACCAAGAG [Mat - Exclusion 2 - Mod of my Tesla design - D17] (puzzle: Exclusion 2) | 21.5 | – | – | – | 38 | 22.5 |
| CGAGUGUAAGGAUAUUCGGCACUAGGGACCACCCUAGUGUAGAAGAAGGUACAUGAGGAUCACCCAUGUGGUUA [Bereisonma] (puzzle: Exclusion 4) | 273 | – | – | – | – | – |
| UCAUACGGUGAGGAUAUCUCCGCUAAAGUGUGUAGAGAAGGCGCUACAUGAGGAUCACCCAUGUUUGUGGGCAG [Ex-6 Malc#11] (puzzle: Exclusion 6) | 421 | – | – | – | – | – |
| GGUGGACAUGAGGAUCACCCAUGUGAGGAUAUCGGCUAUCUUCUCGCUGUCGGUUGCUCGAGAAGGCACAUUGU [Exclusion 1 V94] (puzzle: Exclusion 1) | 52.2 | – | – | – | – | – |
| GAUACACAUGAGGAUCACCCAUGUUAGGAUAUUAGCGGGAAAGCUGUCAGACAGUCGAUGAGAAGGAACAGGAG [Excls1-VIII] (puzzle: Exclusion 1) | 29.3 | – | – | – | – | – |
